Assay results as given in patent publication US20100196393A1 (ST LOUIS UNIVERSITY, published 2010).
No end group written: not given here.

What was measured:
[1] = molecular target: low density lipoprotein receptor-related protein-1 (LRP-1), mouse (mouse) (UniProt Q91ZX7); test: cell-based or functional assay
[2] = molecular target: beta-F1 ATPase (ATP synthase beta subunit), mouse, on brain microvessels (mouse, UniProt P56480 47-529); test: cell-based or functional assay
Sequence of beta-F1 ATPase (ATP synthase beta subunit), mouse, on brain microvessels (P56480 47-529): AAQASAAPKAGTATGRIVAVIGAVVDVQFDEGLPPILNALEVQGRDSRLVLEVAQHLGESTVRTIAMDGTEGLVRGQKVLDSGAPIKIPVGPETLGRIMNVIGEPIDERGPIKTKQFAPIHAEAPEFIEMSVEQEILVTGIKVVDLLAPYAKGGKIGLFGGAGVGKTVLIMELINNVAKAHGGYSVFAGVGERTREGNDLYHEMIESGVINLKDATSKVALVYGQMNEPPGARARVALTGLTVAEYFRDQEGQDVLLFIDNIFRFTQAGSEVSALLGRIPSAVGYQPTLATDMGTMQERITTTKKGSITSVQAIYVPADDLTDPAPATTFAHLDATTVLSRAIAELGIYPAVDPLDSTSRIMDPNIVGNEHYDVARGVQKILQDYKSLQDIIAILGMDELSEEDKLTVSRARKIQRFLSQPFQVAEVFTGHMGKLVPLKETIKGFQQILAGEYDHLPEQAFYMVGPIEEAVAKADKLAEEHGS

Sequence of low density lipoprotein receptor-related protein-1 (LRP-1), mouse (mouse) (Q91ZX7 20-4545): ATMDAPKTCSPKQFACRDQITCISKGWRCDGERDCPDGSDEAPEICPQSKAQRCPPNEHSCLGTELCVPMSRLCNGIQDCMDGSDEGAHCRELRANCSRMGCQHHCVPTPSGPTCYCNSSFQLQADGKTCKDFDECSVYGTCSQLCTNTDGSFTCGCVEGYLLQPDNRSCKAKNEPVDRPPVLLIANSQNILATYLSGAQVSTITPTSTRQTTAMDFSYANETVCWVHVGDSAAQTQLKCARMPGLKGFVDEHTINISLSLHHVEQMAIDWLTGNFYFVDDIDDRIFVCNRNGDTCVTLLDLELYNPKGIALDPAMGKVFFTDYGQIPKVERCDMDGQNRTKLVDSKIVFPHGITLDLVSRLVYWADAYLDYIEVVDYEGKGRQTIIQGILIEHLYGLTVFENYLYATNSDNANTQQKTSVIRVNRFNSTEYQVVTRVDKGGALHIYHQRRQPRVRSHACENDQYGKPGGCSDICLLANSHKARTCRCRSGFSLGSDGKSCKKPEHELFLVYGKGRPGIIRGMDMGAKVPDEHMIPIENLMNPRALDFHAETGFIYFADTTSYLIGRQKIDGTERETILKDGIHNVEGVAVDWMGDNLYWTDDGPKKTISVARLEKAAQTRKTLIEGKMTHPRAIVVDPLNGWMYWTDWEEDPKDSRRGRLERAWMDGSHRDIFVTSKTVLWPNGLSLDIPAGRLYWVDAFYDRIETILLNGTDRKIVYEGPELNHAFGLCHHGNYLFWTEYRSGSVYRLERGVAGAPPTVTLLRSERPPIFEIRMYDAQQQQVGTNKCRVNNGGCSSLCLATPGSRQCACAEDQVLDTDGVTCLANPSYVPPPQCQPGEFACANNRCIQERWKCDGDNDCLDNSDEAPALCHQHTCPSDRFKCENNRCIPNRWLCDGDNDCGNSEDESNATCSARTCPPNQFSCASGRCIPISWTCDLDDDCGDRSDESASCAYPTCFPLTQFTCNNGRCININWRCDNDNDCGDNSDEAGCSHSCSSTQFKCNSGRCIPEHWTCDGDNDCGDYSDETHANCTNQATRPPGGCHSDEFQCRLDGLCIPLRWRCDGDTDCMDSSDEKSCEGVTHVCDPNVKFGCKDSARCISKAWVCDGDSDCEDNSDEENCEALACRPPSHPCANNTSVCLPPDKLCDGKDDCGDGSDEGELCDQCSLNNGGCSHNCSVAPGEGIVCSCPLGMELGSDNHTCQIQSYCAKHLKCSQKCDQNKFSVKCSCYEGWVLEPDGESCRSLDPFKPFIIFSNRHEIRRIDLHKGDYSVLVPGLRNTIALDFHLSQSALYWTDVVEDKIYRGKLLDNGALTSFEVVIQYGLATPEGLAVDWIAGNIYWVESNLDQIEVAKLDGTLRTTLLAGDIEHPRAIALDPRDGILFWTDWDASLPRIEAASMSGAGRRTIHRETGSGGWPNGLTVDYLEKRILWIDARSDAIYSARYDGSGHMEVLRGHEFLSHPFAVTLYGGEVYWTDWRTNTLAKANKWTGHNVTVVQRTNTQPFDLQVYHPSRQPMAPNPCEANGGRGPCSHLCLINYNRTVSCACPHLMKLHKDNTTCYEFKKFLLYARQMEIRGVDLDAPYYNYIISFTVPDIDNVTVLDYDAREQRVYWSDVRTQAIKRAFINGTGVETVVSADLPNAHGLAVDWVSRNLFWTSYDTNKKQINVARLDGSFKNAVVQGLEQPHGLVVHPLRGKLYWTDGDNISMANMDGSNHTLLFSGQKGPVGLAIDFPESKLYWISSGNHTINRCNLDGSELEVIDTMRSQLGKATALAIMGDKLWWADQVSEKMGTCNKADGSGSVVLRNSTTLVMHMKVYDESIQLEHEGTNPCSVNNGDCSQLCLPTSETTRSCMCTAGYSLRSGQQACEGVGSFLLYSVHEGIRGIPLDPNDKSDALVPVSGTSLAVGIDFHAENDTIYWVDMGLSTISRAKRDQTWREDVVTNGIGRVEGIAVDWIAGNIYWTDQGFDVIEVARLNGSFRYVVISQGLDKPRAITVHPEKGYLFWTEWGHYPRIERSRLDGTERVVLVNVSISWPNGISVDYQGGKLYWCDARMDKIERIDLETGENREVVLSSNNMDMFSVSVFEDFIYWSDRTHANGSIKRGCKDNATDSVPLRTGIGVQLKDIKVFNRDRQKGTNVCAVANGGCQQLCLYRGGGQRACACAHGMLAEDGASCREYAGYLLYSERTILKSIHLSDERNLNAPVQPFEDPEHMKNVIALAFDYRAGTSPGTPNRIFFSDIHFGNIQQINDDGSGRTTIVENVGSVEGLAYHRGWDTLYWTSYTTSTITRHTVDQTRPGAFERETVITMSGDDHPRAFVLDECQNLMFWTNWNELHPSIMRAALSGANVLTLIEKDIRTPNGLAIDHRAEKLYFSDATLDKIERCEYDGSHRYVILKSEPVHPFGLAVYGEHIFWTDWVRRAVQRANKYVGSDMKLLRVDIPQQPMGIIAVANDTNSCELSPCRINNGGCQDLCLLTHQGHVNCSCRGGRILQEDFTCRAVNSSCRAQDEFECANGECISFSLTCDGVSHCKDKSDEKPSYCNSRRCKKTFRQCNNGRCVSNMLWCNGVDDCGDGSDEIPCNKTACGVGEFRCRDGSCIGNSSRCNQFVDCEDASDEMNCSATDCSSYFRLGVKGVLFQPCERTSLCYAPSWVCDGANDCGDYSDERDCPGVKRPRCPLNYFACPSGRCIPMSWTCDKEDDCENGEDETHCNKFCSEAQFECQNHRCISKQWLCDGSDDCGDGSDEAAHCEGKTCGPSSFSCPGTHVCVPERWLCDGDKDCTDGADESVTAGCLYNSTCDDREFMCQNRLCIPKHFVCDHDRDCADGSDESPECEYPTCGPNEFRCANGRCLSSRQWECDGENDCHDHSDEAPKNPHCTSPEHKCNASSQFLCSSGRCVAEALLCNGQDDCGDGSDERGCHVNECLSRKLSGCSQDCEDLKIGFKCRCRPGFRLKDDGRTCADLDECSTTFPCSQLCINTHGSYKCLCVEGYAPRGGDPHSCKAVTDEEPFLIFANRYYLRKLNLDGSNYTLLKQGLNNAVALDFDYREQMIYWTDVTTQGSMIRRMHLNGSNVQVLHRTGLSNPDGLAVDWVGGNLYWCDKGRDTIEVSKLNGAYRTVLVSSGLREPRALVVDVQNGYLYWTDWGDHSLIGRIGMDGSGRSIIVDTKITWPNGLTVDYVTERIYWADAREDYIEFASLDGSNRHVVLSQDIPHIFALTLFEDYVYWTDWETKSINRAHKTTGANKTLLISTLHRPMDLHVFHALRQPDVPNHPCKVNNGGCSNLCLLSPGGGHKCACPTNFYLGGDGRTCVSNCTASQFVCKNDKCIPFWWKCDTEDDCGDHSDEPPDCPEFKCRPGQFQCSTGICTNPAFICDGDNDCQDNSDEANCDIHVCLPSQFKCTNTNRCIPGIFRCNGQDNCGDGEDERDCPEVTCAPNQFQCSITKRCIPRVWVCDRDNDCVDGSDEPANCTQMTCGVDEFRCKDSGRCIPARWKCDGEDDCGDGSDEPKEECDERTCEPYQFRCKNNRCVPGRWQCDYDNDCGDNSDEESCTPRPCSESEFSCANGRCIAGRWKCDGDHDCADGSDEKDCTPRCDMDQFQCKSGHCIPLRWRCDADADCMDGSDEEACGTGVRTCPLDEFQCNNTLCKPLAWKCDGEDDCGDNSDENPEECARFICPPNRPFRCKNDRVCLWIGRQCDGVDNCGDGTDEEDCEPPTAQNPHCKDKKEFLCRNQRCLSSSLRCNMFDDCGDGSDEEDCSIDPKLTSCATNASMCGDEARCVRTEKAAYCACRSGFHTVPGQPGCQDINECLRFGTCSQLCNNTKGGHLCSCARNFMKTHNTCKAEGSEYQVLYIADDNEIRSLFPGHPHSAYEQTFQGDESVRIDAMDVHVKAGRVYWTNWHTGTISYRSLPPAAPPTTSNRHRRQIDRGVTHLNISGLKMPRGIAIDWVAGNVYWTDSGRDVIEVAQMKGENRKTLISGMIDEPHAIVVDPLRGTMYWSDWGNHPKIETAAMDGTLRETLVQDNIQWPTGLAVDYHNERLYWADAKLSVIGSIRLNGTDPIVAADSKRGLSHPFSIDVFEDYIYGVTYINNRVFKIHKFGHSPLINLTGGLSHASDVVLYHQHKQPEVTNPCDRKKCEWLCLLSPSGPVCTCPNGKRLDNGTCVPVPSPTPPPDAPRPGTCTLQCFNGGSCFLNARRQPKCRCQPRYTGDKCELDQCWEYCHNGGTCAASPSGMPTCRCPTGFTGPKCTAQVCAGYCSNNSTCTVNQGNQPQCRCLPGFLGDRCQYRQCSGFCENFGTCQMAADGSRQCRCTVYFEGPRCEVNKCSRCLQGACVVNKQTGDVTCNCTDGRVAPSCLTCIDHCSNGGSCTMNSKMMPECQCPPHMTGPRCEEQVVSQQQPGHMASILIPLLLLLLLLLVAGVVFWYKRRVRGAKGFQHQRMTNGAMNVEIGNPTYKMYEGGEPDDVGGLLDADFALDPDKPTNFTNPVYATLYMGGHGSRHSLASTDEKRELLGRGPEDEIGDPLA

brain efflux of icv I-Aβ42 after two iv injections of anti-LRP-1 antisense cocktail, relative to saline treated mice [1] [%] | uptake of I-PACAP27 delivered by brain perfusion, 24 h after iv antisense cocktail against beta-F1 ATPase [2] [fold] | Molecule
0.87 |  | 42 amino acid murine amyloid beta (Aβ42) (from UniProt P12023 672-713) (peptide)
 | 4 | HSDGIFTDSYSRYRKQMAVKKYLAAVL (peptide, UniProt P18509 132-158, looked up, ends and bridges not checked; also: 131I radioiodinated, residue not given here) [PACAP27 (pituitary adenylate cyclase-activating polypeptide, 27 amino acid form)]
